Source: article doi:10.1101/2024.11.22.622898

Target: Retromer (recombinant trimer) (human) (UniProt Q96QK1)
Test: ITC

Substance | Kd [µM]
DENND4C peptide 1189-1206 | 15.4
recombinant full-length human TBC1D13 (from UniProt Q9NVG8 1-400) (natural protein) | 6.3
